Assay results reported in patent US20160310575A1 (INDIANA UNIVERSITY RESEARCH AND TECHNOLOGY, published 2016).
Non-standard residues stand in square brackets, D forms with d. No end group written: not given here. Aib = CC(C)(N)C(=O)O

Columns and labels:
[1] = target: T1, human GIP-R (human, UniProt P48546 22-466); assay: cell-based or functional assay
T1 sequence (looked up): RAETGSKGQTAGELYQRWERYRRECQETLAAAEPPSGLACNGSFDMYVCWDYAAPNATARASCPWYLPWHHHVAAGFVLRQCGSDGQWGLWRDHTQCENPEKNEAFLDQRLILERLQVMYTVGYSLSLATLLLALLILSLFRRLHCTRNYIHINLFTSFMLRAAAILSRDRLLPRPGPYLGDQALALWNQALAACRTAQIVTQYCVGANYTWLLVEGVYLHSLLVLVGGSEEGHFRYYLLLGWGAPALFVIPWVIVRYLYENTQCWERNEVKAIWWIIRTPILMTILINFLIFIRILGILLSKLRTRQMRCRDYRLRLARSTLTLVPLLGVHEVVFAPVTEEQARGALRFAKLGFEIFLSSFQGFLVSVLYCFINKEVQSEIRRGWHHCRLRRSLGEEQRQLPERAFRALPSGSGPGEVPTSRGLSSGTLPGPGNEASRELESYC

[2] = target: human GLP-R (human, UniProt P43220 24-463); assay: cell-based or functional assay

## Y[Aib]EGTFTSDYSIYLDKQAA[Aib]EFVAWLLAGGPSSGAPPPSKLPETGGSGS-NH2 (also: PEG (site and size not given here)) [PEG-peptide-long24A]
[1]
  EC50 [nM], GIP-R (cAMP assay): 7.51 nM
[2]
  EC50 [nM], GLP1-R (cAMP assay): 3.89 nM
